T1: human BCMA on NCI-H929 tumor cells (human, UniProt Q02223 1-184)
T1 sequence (looked up): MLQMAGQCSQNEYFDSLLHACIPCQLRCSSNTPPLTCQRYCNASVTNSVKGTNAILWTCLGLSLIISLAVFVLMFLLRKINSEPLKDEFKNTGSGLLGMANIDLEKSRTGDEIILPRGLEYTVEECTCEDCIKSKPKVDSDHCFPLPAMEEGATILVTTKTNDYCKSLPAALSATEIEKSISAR


Target: T1, human BCMA on NCI-H929 tumor cells
Assay: cell-based or functional assay

Binder	Endocytosis efficiency % (0.5 hour) [%]	Endocytosis efficiency % (2 hours) [%]
humanized anti-BCMA antibody Ab2 (antibody, human IgG1, kappa, V domains shown) VH: QVQLVQSGAEVKKPGASVKVSCKASGYSFSDYEMHWVRQAPGQGLEWIGGIHPGSGGSAYNQKFKGRVTLTVDKSTSTAYMELSSLRSEDTAVYYCTRLDYGYSWAWFPYWGQGTLVTVSA VL: EIVLTQSPATLSLSPGERATLSCSASSSVIYMNWYQQKPGQSPKIWIYGISNLASGVPARFSGSGSGTDFTLTISSLEPEDFAVYYCQQRSSYPLTFGGGTKVEIKR	36.7	48
humanized anti-BCMA antibody Ab1 (antibody, human IgG1, kappa, V domains shown) VH: QVQLVQSGAEVKKPGASVKVSCKASGYSFSDYEMHWVRQAPGQGLEWMGGIHPGSGGSAYNQKFKGRVTMTRDTSTSTVYMELSSLRSEDTAVYYCTRLDYGYSWAWFPYWGQGTLVTVSA VL: EIVLTQSPATLSLSPGERATLSCSASSSVIYMNWYQQKPGQAPRLLIYGISNLASGIPARFSGSGSGTDFTLTISSLEPEDFAVYYCQQRSSYPLTFGGGTKVEIKR	36.6	49.5
humanized anti-BCMA antibody Ab3 (antibody, human IgG1, kappa, V domains shown) VH: QVQLVQSGAEVKKPGASVKVSCKASGYSFSDYEMHWVRQAPGQGLEWIGGIHPGSGGSAYNQKFKGKATLTVDKSTSTAYMELSSLRSEDTAVYYCTRLDYGYSWAWFPYWGQGTLVTVSA VL: EILLTQSPATLSLSPGERATLTCSASSSVIYMNWYQQKPGSSPKIWIYGISNLASGVPARFSGSGSGTSFTLTISSLEPEDFAVYYCQQRSSYPLTFGGGTKVEIKR	35.5	45.7

From patent US20220251228A1 (SHANGHAI HANSOH BIOMEDICAL, published 2022)
